B1: Fab PN-SIA28 (Fab, V domains shown)
VH: LEESGGGVVQPGRSLRLSCAASGFPFSSYGMHWVRQAPGKGLEWVAGVSYDGSYKYYADSVKGRFTISRDSSKSTLYLQMNSLRPEDTAVYYCARPSAIFGIYIILNGLDVWGQGTTVTVSS
VL: ELTQSPSSVSASVGDRVTITCRATQGISSWLAWYQQKPGKPPKLLIFGASSLQSGVPSRFSGSGSGTDFTLTISSLQPEDFATYFCQQAHSFPLTFGGGTKVEIK
B2: IgG PN-SIA28 (antibody, V domains shown)
VH: B1 VH
VL: B1 VL

What was measured:
Assay in all cases: cell-based or functional assay
[1] = biological target: Hemagglutinin of A/Wisconsin/67/2005 (H3N2) (Influenza A virus A/Wisconsin/67/2005 …)
[2] = biological target: Hemagglutinin of A/Hong Kong/8/68 (H3N2) (Influenza A virus A/Hong Kong/8/68 …)
[3] = biological target: Hemagglutinin of A/Milan/UHSR1/2009 (H1N1) (Influenza A virus A/Milan/UHSR1/2009 …)
[4] = biological target: H3N2 HA (A/Aichi/2/68), wild type (Influenza A virus A/Aichi/2/68 (H3N2), UniProt Q91MA7 17-566)
[5] = biological target: Hemagglutinin of A/Swine/Parma/1/97 (H1N1) (Influenza A virus A/Swine/Parma/1/97 …)
[6] = biological target: Hemagglutinin of A/Mal/302/54 (H1N1) (Influenza A virus A/Mal/302/54 (H1N1))
[7] = biological target: Hemagglutinin of A/Victoria/3/75 (H3N2) (Influenza A virus A/Victoria/3/75 (H3N2), UniProt P03435 17-567)
[8] = biological target: A/PR/8/34 (H1N1) hemagglutinin (HA), wild type (Influenza A virus A/PR/8/34 (H1N1), UniProt P03452 18-565)
[9] = biological target: Hemagglutinin of A/Port Chalmers/1/73 (H3N2) (Influenza A virus A/Port Chalmers/1/73 …)
[10] = biological target: Hemagglutinin of A/NC/20/99 (H1N1) (Influenza A virus A/NC/20/99 (H1N1))
[11] = biological target: Hemagglutinin of A/WS/33 (H1N1) (Influenza A virus A/WS/33 (H1N1), UniProt P03454 18-565)

Binder	IC50, micro-neutralization assay on MDCK cells [1] [µg/mL]	IC50, micro-neutralization assay on MDCK cells [2] [µg/mL]	IC50, micro-neutralization assay on MDCK cells [3] [µg/mL]	IC50, micro-neutralization assay on MDCK cells [4] [µg/mL]	IC50, micro-neutralization assay on MDCK cells [5] [µg/mL]	IC50, micro-neutralization assay on MDCK cells [6] [µg/mL]	IC50, micro-neutralization assay on MDCK cells [7] [µg/mL]	IC50, micro-neutralization assay on MDCK cells [8] [µg/mL]	IC50, micro-neutralization assay on MDCK cells [9] [µg/mL]	IC50, micro-neutralization assay on MDCK cells [10] [µg/mL]	IC50, micro-neutralization assay on MDCK cells [11] [µg/mL]
B1	> 20	20	0.3	20	3.9	0.8	> 20	2	13.2	7	2.9
B2	–	0.8	0.2	0.6	2	0.64	1.2	1.2	1.8	–	1.3

— patent publication US20130022608A1 (POMONA RICERCA S R L, published 2013)
